Reference: publication PMC6053351, “Structural and biochemical insights into human zinc finger protein AEBP2 reveals interactions with RBBP4”

Molecular target: AEBP2 ZF1-3 (Homo sapiens, UniProt Q6ZN18 258-357)
Experiment: fluorescence polarization; FPA with dsDNA: 25 mM Tris pH 7.4, 150 mM salt (salt identity and rest truncated in material), 50 nM FAM-DNA, 200 ul; G3A4 buffer and temperature not given in material
Conditions: protein: recombinant, tags: His6
[1] = label: 5'-FAM on sense strand, blunt

Chain of AEBP2 ZF1-3 (Q6ZN18 258-357): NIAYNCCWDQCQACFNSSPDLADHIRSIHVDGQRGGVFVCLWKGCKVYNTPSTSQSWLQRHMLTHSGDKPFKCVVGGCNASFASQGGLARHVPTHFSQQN

B1: GC-rich (dsDNA)
DNA 1: GCGGCCCGCGCCCGCCGCCCCGCCGCGGCCCGCGCGGCCCGCGC
DNA 2: GCGCGGGCCGCGCGGGCCGCGGCGGGGCGGCGGGCGCGGGCCGC
[1]
  binding result: no binding

## AAAAAAGGGAAAAGGGAAAAGGGAAAAGGGAAAAAAAAAA (structured_DNA) [G3A4]
label: 5'-FAM, G4
  binding result: no binding

B2: AT-rich (dsDNA)
DNA 1: ATAATTTATATTTATTATTTTATTATAATTTATATAATTTATAT
DNA 2: ATATAAATTATATAAATTATAATAAAATAATAAATATAAATTAT
[1]
  binding result: no binding

B3: T1 (dsDNA)
DNA 1: GATCTTTAGTTAACTTCCTCTCTGTCTGCAGGCCACTCCAGATC
DNA 2: GATCTGGAGTGGCCTGCAGACAGAGAGGAAGTTAACTAAAGATC
[1]
  binding result: no binding
